{"source": "patent US5102995A", "about": "“DNA encoding modified heparin cofactor II” (Washington University, priority 1989, dated 1992)", "key": {"thrombin [1]": {"test_system": "thrombin", "test": "Inhibition of thrombin by rHCII (chromogenic substrate Chromozym TH)", "assay_type": "biochemical, human", "conditions": "for Second-order rate constant (k2) for inhibition of thrombin: No GAG, thrombin 15 nM, room temperature; for Increase in the rate constant for thrombin inhibition produced by dermatan sulfate: dermatan sulfate vs no GAG; for Increase in the rate constant for thrombin inhibition produced by heparin: heparin vs no GAG; for Maximum rate constant of thrombin inhibition relative to native HCII: in the presence of dermatan sulfate", "experimental": "(§1) Materials--Chromogenic substrates were purchased from the following sources: tosyl-Gly-Pro-Arg-p-nitroanilide (Chromozym TH), Boehringer Mannheim; N-succinyl-Ala-Ala-Pro-Phe-p-nitroanilde, Sigma; methoxycarbonyl cyclohexylglycyl-Gly-Arg-p-nitroanilde (Spectrozyme FXa), American Diagnostica; and Pro-Phe-Arg-p-nitroanilide (S-2302), KabiVitrum. Thrombin and HCII derived from human plasma were prepared and assayed by conventional procedures as previously described by Blinder et al., J. Biol. Chem. 264, 5128-5133 (1989). Human coagulation factor Xa was provided by Dr. George Broze, Jr., Washington University, St. Louis, Mo. Human chymotrypsin and plasma kallikrein were purchased from Sigma. Affinity purified rabbit anti-HCII antibodies were prepared and labeled with Na[^125 I] by conventional procedure as described previously by Blinder et al., Biochemistry 27, 752-759 (1988). Bovine lung heparin and porcine skin dermatan sulfate were purchased from Sigma; the dermatan sulfate was treated with nitrous acid to remove contaminating heparin prior to use [Teien et al., Thromb. Res. 8, 859-867 (1976)]. Heparin-Sepharose was prepared by commonly known procedure as described previously by Tollefsen et al., J. Biol. Chem. 257, 2162-2169 (1982).\n(§2) Inhibition of proteases by rHCII--Protease inhibition by rHCII was determined by incubating 90 μl of the partially purified rHCII (or the corresponding heparin-Sepharose fractions of a control lysate from cells transformed with pMON-5840) with 5 μl of the protease and 5 μl of either glycosaminoglycan or water in a disposable polystyrene cuvette at room temperature. Final concentrations of the proteases were as follows: thrombin, 15 nM; chymotrypsin, 21 nM; factor Xa, 16 nM; and kallikrein, 10 nM. After a specified period of time from 5 seconds (s) to 150 min, 300-500 μl of the appropriate chromogenic substrate was added, and the absorbance at 405 nm was recorded continuously for 100 s. The rate of change of absorbance was proportional to the concentration of active protease remaining in the incubation. The amounts added and concentrations of each substrate were as follows: Chromozym TH (thrombin), 500 μl, 0.1 mM; N-succinyl-Ala-Ala-Pro-Phe-p-nitroanilde (chymovtrypsin), 300 μl, 0.5 mM; Spectrozyme FXa (factor Xa), 400 μl, 0.125 mM; and S-2302 (kallikrein), 300 μl, 0.4 mM.\n(§3) Protease inhibition by rHCII in the absence of a glycosaminoglycan--The time courses of inhibition of thrombin, factor Xa, kallikrein, and chymotrypsin by […] rHCII(Leu444 →Arg) in the absence of a glycosaminoglycan are indicated in FIG. 3. The incubations were performed under pseudo-first-order conditions, such that the initial concentration of rHCII was greater than the concentration of protease. The pseudo-first-order rate constants (k1) for protease inhibition were determined by fitting the data to the following equation: k1 t=ln([P]0 /[P]t), in which [P]0 =initial protease activity and [P]t =protease activity at time=t. The second-order rate constants (k2) were then calculated by dividing k1 by the initial rHCII concentration. It was observed that rHCII(Leu444 →Arg) inhibits thrombin almost 100 times more rapidly than native rHCII in the absence of a glycosaminoglycan. Furthermore, rHCII(Leu444 →Arg) inhibits factor Xa and kallikrein, while inhibition of these proteases by native rHCII is undetectable.\nInhibition of thrombin by rHCII in the presence of dermatan sulfate or heparin--The time course of inhibition of thrombin was determined in the presence of various concentrations of dermatan sulfate or heparin."}, "chymotrypsin": {"test_system": "chymotrypsin", "test": "Inhibition of chymotrypsin by rHCII (chromogenic substrate)", "assay_type": "biochemical, human", "conditions": "for Second-order rate constant (k2) for inhibition of chymotrypsin: No GAG, chymotrypsin 21 nM; for Inhibition of chymotrypsin (in words): absence of a glycosaminoglycan", "experimental": "as §1, §2, §3"}, "factor Xa": {"test_system": "factor Xa", "test": "Inhibition of factor Xa by rHCII (Spectrozyme FXa)", "assay_type": "biochemical, human", "conditions": "for Second-order rate constant (k2) for inhibition of factor Xa: No GAG, factor Xa 16 nM; for Inhibition of factor Xa (in words): absence of a glycosaminoglycan", "experimental": "as §1, §2, §3"}, "plasma kallikrein": {"test_system": "plasma kallikrein", "test": "Inhibition of kallikrein by rHCII (S-2302)", "assay_type": "biochemical, human", "conditions": "for Second-order rate constant (k2) for inhibition of kallikrein: No GAG, kallikrein 10 nM; for Inhibition of kallikrein (in words): absence of a glycosaminoglycan", "experimental": "as §1, §2, §3"}, "thrombin [2]": {"test_system": "thrombin", "conditions": "literature; cited from earlier work"}}}
{"molecule": "rHCII(Leu444 →Arg): modified heparin cofactor II: leucine at position 444 replaced by arginine in the 480 amino acid sequence; expressed in E. coli (protein, UniProt P05546 20-499, looked up, variant L444R, expressed in E. coli) Heparin cofactor 2: GSKGPLDQLEKGGETAQSADPQWEQLNNKNLSMPLLPADFHKENTVTNDWIPEGEEDDDYLDLEKIFSEDDDYIDIVDSLSVSPTDSDVSAGNILQLFHGKSRIQRLNILNAKFAFNLYRVLKDQVNTFDNIFIAPVGISTAMGMISLGLKGETHEQVHSILHFKDFVNASSKYEITTIHNLFRKLTHRLFRRNFGYTLRSVNDLYIQKQFPILLDFKTKVREYYFAEAQIADFSDPAFISKTNNHIMKLTKGLIKDALENIDPATQMMILNCIYFKGSWVNKFPVEMTHNHNFRLNEREVVKVSMMQTKGNFLAANDQELDCDILQLEYVGGISMLIVVPHKMSGMKTLEAQLTPRVVERWQKSMTNRTREVLLPKFKLEKNYNLVESLKLMGIRMLFDKNGNMAGISDQRIAIDLFKHQGTITVNEEGTQATTVTTVGFMPRSTQVRFTVDRPFLFLIYEHRTSCLLFMGRVANPSRS", "values": [{"measurement": "Second-order rate constant (k2) for inhibition of thrombin", "setting": "thrombin [1]", "value": 103000, "unit": "M⁻¹ s⁻¹"}, {"measurement": "Second-order rate constant (k2) for inhibition of thrombin", "setting": "thrombin [1]; listed as HCII(Leu444 →Arg)", "value": 103000, "unit": "M⁻¹ s⁻¹"}, {"measurement": "Rate of thrombin inhibition relative to native HCII", "setting": "thrombin [1]; absence of a glycosaminoglycan", "value": "~100", "unit": "fold"}, {"measurement": "Increase in the rate constant for thrombin inhibition produced by dermatan sulfate", "setting": "thrombin [1]", "value": "much smaller effect"}, {"measurement": "Increase in the rate constant for thrombin inhibition produced by heparin", "setting": "thrombin [1]", "value": "minimal effect"}, {"measurement": "Maximum rate constant of thrombin inhibition relative to native HCII", "setting": "thrombin [1]", "value": "about twice as fast"}, {"measurement": "Maximum rate constant of thrombin inhibition relative to native HCII", "setting": "thrombin [1]; listed as HCII(Leu444 →Arg)", "value": 2, "unit": "fold"}, {"measurement": "Second-order rate constant (k2) for inhibition of chymotrypsin", "setting": "chymotrypsin", "value": "< 170", "unit": "M⁻¹ s⁻¹"}, {"measurement": "Inhibition of chymotrypsin (in words)", "setting": "chymotrypsin", "value": "does not inhibit chymotrypsin at a detectable rate"}, {"measurement": "Inhibition of chymotrypsin (in words)", "setting": "chymotrypsin; listed as HCII(Leu444 →Arg)", "value": "more slowly"}, {"measurement": "Second-order rate constant (k2) for inhibition of factor Xa", "setting": "factor Xa", "value": 733, "unit": "M⁻¹ s⁻¹"}, {"measurement": "Inhibition of factor Xa (in words)", "setting": "factor Xa", "value": "inhibits"}, {"measurement": "Inhibition of factor Xa (in words)", "setting": "factor Xa; listed as HCII(Leu444 →Arg)", "value": "inhibited more rapidly"}, {"measurement": "Effect of dermatan sulfate on rate of inhibition of factor Xa", "setting": "factor Xa; dermatan sulfate", "value": "nor does it increase"}, {"measurement": "Effect of heparin on inhibition of factor Xa", "setting": "factor Xa; heparin 100 μg/ml", "value": "appears to protect"}, {"measurement": "Second-order rate constant (k2) for inhibition of kallikrein", "setting": "plasma kallikrein", "value": 2170, "unit": "M⁻¹ s⁻¹"}, {"measurement": "Inhibition of kallikrein (in words)", "setting": "plasma kallikrein", "value": "inhibits"}, {"measurement": "Inhibition of kallikrein (in words)", "setting": "plasma kallikrein; listed as HCII(Leu444 →Arg)", "value": "inhibited more rapidly"}, {"measurement": "Effect of heparin on inhibition of kallikrein", "setting": "plasma kallikrein; heparin 100 μg/ml", "value": "appears to protect"}]}
{"molecule": "native rHCII: recombinant native heparin cofactor II expressed in E. coli; amino acid sequence identical to HCII purified from human plasma (protein, UniProt P05546 20-499, looked up) Heparin cofactor 2: GSKGPLDQLEKGGETAQSADPQWEQLNNKNLSMPLLPADFHKENTVTNDWIPEGEEDDDYLDLEKIFSEDDDYIDIVDSLSVSPTDSDVSAGNILQLFHGKSRIQRLNILNAKFAFNLYRVLKDQVNTFDNIFIAPVGISTAMGMISLGLKGETHEQVHSILHFKDFVNASSKYEITTIHNLFRKLTHRLFRRNFGYTLRSVNDLYIQKQFPILLDFKTKVREYYFAEAQIADFSDPAFISKTNNHIMKLTKGLIKDALENIDPATQMMILNCIYFKGSWVNKFPVEMTHNHNFRLNEREVVKVSMMQTKGNFLAANDQELDCDILQLEYVGGISMLIVVPHKMSGMKTLEAQLTPRVVERWQKSMTNRTREVLLPKFKLEKNYNLVESLKLMGIRMLFDKNGNMAGISDQRIAIDLFKHQGTITVNEEGTQATTVTTVGFMPLSTQVRFTVDRPFLFLIYEHRTSCLLFMGRVANPSRS", "values": [{"measurement": "Second-order rate constant (k2) for inhibition of thrombin", "setting": "thrombin [1]", "value": 1050, "unit": "M⁻¹ s⁻¹"}, {"measurement": "Second-order rate constant (k2) for inhibition of thrombin", "setting": "thrombin [1]; listed as native HCII", "value": 1050, "unit": "M⁻¹ s⁻¹"}, {"measurement": "Increase in the rate constant for thrombin inhibition produced by dermatan sulfate", "setting": "thrombin [1]", "value": "~3500", "unit": "fold"}, {"measurement": "Increase in the rate constant for thrombin inhibition produced by heparin", "setting": "thrombin [1]", "value": "about 40 fold"}, {"measurement": "Second-order rate constant (k2) for inhibition of chymotrypsin", "setting": "chymotrypsin", "value": 3670, "unit": "M⁻¹ s⁻¹"}, {"measurement": "Effect of dermatan sulfate on rate of inhibition of chymotrypsin", "setting": "chymotrypsin; dermatan sulfate", "value": "does not significantly increase"}, {"measurement": "Second-order rate constant (k2) for inhibition of factor Xa", "setting": "factor Xa", "value": "< 17", "unit": "M⁻¹ s⁻¹"}, {"measurement": "Inhibition of factor Xa (in words)", "setting": "factor Xa", "value": "undetectable"}, {"measurement": "Second-order rate constant (k2) for inhibition of kallikrein", "setting": "plasma kallikrein", "value": "< 50", "unit": "M⁻¹ s⁻¹"}, {"measurement": "Inhibition of kallikrein (in words)", "setting": "plasma kallikrein", "value": "undetectable"}]}
{"molecule": "HCII: heparin cofactor II, a 65,600 dalton plasma glycoprotein, serpin that inhibits thrombin (protein, UniProt P05546 20-499, looked up) Heparin cofactor 2: GSKGPLDQLEKGGETAQSADPQWEQLNNKNLSMPLLPADFHKENTVTNDWIPEGEEDDDYLDLEKIFSEDDDYIDIVDSLSVSPTDSDVSAGNILQLFHGKSRIQRLNILNAKFAFNLYRVLKDQVNTFDNIFIAPVGISTAMGMISLGLKGETHEQVHSILHFKDFVNASSKYEITTIHNLFRKLTHRLFRRNFGYTLRSVNDLYIQKQFPILLDFKTKVREYYFAEAQIADFSDPAFISKTNNHIMKLTKGLIKDALENIDPATQMMILNCIYFKGSWVNKFPVEMTHNHNFRLNEREVVKVSMMQTKGNFLAANDQELDCDILQLEYVGGISMLIVVPHKMSGMKTLEAQLTPRVVERWQKSMTNRTREVLLPKFKLEKNYNLVESLKLMGIRMLFDKNGNMAGISDQRIAIDLFKHQGTITVNEEGTQATTVTTVGFMPLSTQVRFTVDRPFLFLIYEHRTSCLLFMGRVANPSRS", "values": [{"measurement": "Increase of the rate of thrombin inhibition by heparin and dermatan sulfate", "setting": "thrombin [2]", "value": "~ 1000 fold"}]}
